For two substances, stoichiometry N results are on record in paper PMC4631590.

Usually stoichiometry N stands for a count of units in the complex or per binding partner.

Assay [1] deals with Corynebacterium ammoniagenes fatty-acid synthase type I (C. ammoniagenes). In words: SEC; 0.1 M sodium phosphate pH 6.5, 0.1 M NaCl, 5 mM sodium malonate.
The target of assay [2] is Corynebacterium efficiens fatty-acid synthase type I (FAS B) (C. efficiens) (UniProt Q8FMV7). In words: SEC; Superose 6 XK 16/70; 0.1 M bis-tris propane pH 6.8, 0.2 M NaCl, 10% glycerol. A general note: Size exclusion chromatography separates by hydrodynamic size, large species first.

“Corynebacterium ammoniagenes fatty-acid synthase type I (enzyme)”: the stoichiometry N in assay [1] came out at 6.
In turn, “Corynebacterium efficiens fatty-acid synthase type I (FAS B) (from UniProt Q8FMV7 1-3022) (enzyme)” registered a stoichiometry N in assay [2] of 6.
